Measurements: patent US20100298612

Assays:
[1] = target: T1, Nocardia NRRL5646 carboxylic acid reductase (CAR)
T1 chain: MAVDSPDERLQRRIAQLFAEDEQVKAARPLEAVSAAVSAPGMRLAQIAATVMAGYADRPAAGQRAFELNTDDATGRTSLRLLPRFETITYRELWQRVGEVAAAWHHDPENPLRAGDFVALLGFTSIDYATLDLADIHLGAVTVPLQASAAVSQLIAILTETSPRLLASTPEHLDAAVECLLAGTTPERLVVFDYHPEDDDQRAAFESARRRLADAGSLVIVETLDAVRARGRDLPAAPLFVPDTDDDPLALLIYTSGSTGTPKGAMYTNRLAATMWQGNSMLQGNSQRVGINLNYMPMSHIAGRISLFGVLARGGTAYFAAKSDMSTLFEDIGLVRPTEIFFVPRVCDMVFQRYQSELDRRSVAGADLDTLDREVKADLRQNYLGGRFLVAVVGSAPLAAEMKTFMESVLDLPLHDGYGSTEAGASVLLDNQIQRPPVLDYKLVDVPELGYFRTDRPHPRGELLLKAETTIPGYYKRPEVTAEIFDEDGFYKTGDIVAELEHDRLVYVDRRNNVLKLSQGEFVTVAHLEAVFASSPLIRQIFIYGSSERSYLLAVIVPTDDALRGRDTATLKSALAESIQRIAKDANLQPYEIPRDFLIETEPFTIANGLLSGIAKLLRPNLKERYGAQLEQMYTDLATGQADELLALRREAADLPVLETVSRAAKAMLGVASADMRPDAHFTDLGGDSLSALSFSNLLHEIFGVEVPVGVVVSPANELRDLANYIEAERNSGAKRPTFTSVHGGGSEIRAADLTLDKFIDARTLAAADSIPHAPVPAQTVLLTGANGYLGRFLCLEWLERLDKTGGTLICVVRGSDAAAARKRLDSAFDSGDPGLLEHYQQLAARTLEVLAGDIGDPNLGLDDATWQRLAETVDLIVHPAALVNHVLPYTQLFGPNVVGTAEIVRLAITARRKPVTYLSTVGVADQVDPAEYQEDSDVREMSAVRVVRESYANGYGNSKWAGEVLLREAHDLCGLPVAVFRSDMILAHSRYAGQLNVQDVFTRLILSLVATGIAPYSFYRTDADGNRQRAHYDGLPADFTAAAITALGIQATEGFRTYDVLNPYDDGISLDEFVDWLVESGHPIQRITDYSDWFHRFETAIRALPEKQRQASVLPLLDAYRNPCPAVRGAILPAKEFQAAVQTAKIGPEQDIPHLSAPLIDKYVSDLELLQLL

[2] = target: T2, Mycobacterium sp. (strain JLS) carboxylic acid reductase (CAR)
T2 chain: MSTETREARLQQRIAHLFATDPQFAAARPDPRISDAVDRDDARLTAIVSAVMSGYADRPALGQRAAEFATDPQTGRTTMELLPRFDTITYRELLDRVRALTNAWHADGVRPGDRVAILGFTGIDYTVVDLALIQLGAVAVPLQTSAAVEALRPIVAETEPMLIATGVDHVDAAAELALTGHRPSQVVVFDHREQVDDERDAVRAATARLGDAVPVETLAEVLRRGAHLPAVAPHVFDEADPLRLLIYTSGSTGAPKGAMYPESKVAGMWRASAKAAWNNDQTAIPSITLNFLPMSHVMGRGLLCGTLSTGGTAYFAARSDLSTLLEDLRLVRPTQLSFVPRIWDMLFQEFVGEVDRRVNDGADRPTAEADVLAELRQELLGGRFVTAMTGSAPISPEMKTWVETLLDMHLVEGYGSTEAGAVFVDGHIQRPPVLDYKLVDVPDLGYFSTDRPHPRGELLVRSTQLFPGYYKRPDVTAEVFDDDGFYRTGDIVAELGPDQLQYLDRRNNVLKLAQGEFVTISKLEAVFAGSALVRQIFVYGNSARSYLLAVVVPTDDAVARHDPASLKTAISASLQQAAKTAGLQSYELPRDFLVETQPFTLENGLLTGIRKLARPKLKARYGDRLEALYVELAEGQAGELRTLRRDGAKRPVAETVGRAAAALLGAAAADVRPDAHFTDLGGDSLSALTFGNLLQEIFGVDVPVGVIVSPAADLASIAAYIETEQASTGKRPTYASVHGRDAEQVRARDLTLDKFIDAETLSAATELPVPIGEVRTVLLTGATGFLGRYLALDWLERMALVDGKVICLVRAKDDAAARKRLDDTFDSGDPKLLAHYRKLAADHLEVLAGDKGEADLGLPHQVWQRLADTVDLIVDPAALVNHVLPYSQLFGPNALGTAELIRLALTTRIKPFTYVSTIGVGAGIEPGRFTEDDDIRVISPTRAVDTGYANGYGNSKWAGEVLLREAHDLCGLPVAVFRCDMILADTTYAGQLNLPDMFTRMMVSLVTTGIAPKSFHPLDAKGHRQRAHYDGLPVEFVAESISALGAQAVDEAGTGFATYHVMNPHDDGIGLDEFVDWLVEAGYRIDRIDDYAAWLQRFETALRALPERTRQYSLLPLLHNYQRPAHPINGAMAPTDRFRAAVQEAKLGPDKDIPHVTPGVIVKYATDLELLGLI

B1: Nocardia NRRL 5646 phosphopantetheinyl transferase (PPTase) (protein)
chain: MIETILPAGVESAELLEYPEDLKAHPAEEHLIAKSVEKRRRDFIGARHCARLALAELGEPPVAIGKGERGAPIWPRGVVGSLTHCDGYRAAAVAHKMRFRSIGIDAEPHATLPEGVLDSVSLPPEREWLKTTDSALHLDRLLFCAKEATYKAWWPLTARWLGFEEAHITFEIEDGSADSGNGTFHSELLVPGQTNDGGTPLLSFDGRWLIADGFILTAIAYA
**Q.** How did the “CAR activity (in vitro conversion of hexadecanoic acid to 1-hexadecanol; Y. lipolytica CAR lysate pre-incubated with E. coli Nocardia PPTase lysate), fold improvement” value [1] turn out when B1 was run?
**A.** Its value is “by 3-5 times”.

**Q.** What about the “CAR activity (in vitro conversion of hexadecanoic acid to 1-hexadecanol; Y. lipolytica CAR lysate pre-incubated with E. coli Nocardia PPTase lysate), fold improvement” value [2] of the same protein?
**A.** Its value is “by 9-20 times”.
